Measurements as given in patent US5885831.

Columns and labels:
[1] = target: LexA-TIM1 (Drosophila melanogaster); assay: yeast two-hybrid, β-galactosidase activity of liquid cultures, LexA-TIM1, 22 C
[2] = target: LexA-TIM1 (Drosophila melanogaster); assay: yeast two-hybrid, β-galactosidase activity of liquid cultures, LexA-TIM1, 28 C
[3] = target: LexA-TIM1 (Drosophila melanogaster); assay: yeast two-hybrid, β-galactosidase activity of liquid cultures, LexA-TIM1, 35 C

Question: Which fold change of the TIM interaction signal (β-galactosidase activity) against the wild type PER fragment [1] does the source give for VP16-PER^L233-685 (from UniProt P07663) here?
Answer: Its fold change of the TIM interaction signal (β-galactosidase activity) against the wild type PER fragment is 3.4 fold higher.

Question: What about the fold change of the TIM interaction signal (β-galactosidase activity) against the wild type PER fragment [2] of the same substance?
Answer: Its fold change of the TIM interaction signal (β-galactosidase activity) against the wild type PER fragment is 1.8 fold higher.

Question: What about the fold change of the TIM interaction signal (β-galactosidase activity) against the wild type PER fragment [3] of the same substance?
Answer: Its fold change of the TIM interaction signal (β-galactosidase activity) against the wild type PER fragment is 4.8 fold lower.
